Experimental data as given in paper PMC6126647.

Target: MmCPDII (class II CPD photolyase) (UniProt Q8PYK9 1-464)
Test: X-ray crystallography (2.7 A); oxidized FAD; dark, unrepaired CPD; Co-crystallization: protein in 10 mM Tris-HCl pH 8.0, 100 mM NaCl with 1.25x dsDNA (in 100 mM Tris-HCl pH 8.0, 100 mM NaCl), 30 min in dark; mixed 1:1 with 0.1

B1: 14-mer duplex with natural phosphodiester-linked cis-syn CPD (PDM DNA) (dsDNA)
DNA 1: ATCGGCTTCGCGCA
DNA 2: TGCGCGAAGCCGAT
modifications: cis-syn cyclobutane thymine dimer T7<>T8 in strand 1, natural intra-lesion phosphodiester
binding result: binds
